From US20250222128A1 (Zymeworks, published 2025)

Assays:
[1] = target: T1, c-Met (hepatocyte growth factor receptor, HGFR), endogenous on tumour cell lines (UniProt P08581 25-1390, limits assumed); assay: flow cytometry on H292 cells (endogenous cMet), 24 h at 4 C, anti-human IgG Fc AF647
T1 construct: whole, on cells
Procedure: (§1) Briefly, cells were seeded at 50,000 cells/well in V-bottom 96-well plates and treated with antibody for 24 hours at 4° C. to prevent internalization. Following incubation, cells were washed and stained with anti-human IgG Fc AF647 conjugate (Jackson ImmunoResearch Laboratories, Inc., West Grove, PA; Cat. No. 109-605-098) at 4° C. for 30 min. Following incubation and washing, fluorescence was detected by flow cytometry on a BD LSRFortessa™ Cell Analyzer (BD Biosciences, Franklin Lake, NJ) with 1,000 minimum events collected per well. AF647/APC-A GeoMean (fluorescence signal geometric mean, proportional to anti-Human AF647 binding) in live cell population was plotted using GraphPad Prism Version 8 (GraphPad Software, San Diego, CA).

[2] = target: T1, c-Met (hepatocyte growth factor …); assay: apparent Kd, flow cytometry on H292 cells (endogenous cMet)
Procedure: as §1

[3] = target: T1, c-Met (hepatocyte growth factor …); assay: apparent Kd, flow cytometry on SNU-5 cells (endogenous cMet)
Procedure: as §1

[4] = target: T1, c-Met (hepatocyte growth factor …); assay: flow cytometry on SNU-5 cells (endogenous cMet), 24 h at 4 C, anti-human IgG Fc AF647
Procedure: as §1

[5] = target: T1, c-Met (hepatocyte growth factor …); assay: flow cytometry on H292 cells (endogenous cMet), as in Example 10
Procedure: as §1
(§2) Cellular binding was determined as described in Example 10.

[6] = target: T1, c-Met (hepatocyte growth factor …); assay: apparent Kd, flow cytometry on SNU-5 cells (endogenous cMet); remark: listed apart in the source
Procedure: as §1, §2

[7] = target: T1, c-Met (hepatocyte growth factor …); assay: apparent Kd, flow cytometry on H292 cells (endogenous cMet); remark: listed apart in the source
Procedure: as §1, §2

[8] = target: T1, c-Met (hepatocyte growth factor …); assay: flow cytometry on SNU-5 cells (endogenous cMet), as in Example 10
Procedure: as §1, §2

T1 sequence (P08581 25-1390 limits assumed): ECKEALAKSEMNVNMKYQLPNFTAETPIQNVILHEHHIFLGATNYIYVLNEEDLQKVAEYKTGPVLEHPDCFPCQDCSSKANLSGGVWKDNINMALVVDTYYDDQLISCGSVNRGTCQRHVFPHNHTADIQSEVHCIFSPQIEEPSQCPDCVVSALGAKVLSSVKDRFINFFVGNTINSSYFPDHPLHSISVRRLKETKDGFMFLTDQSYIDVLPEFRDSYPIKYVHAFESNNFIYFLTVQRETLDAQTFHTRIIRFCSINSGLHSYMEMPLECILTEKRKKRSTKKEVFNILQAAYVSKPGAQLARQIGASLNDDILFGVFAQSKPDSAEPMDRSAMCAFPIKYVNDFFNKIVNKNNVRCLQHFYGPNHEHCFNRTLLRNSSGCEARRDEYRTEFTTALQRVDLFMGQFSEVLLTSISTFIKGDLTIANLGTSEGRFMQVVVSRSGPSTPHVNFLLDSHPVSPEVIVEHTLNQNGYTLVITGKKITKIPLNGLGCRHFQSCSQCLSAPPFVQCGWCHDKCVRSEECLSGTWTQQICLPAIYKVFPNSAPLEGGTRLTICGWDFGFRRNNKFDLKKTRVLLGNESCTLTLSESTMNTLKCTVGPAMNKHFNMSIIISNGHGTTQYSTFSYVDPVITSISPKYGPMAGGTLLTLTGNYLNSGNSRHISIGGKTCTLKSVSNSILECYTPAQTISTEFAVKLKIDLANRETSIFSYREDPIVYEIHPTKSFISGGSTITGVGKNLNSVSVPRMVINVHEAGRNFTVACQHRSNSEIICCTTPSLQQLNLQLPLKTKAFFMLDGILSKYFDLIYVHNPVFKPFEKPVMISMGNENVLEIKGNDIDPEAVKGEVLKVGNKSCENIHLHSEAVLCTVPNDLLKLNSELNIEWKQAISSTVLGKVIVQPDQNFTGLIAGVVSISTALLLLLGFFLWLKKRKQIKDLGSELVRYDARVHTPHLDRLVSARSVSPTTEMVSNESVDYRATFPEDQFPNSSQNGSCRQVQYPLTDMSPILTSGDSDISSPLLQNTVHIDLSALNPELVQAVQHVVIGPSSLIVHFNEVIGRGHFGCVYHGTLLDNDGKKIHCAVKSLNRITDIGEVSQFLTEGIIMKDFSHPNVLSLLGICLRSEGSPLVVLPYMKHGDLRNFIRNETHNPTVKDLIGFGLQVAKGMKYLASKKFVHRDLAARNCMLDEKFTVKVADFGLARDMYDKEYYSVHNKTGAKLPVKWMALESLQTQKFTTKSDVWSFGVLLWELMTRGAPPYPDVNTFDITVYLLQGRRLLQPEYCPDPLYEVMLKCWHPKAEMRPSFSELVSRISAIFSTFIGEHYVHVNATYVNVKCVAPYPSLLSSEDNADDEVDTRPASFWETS

| Binder | Bmax [1] | Kd [2] [nM] | Kd [3] [nM] | Bmax [4] | Bmax [5] | Kd [6] [nM] | Kd [7] [nM] | Bmax [8] |
| --- | --- | --- | --- | --- | --- | --- | --- | --- |
| v32634 (telisotuzumab paratope, HomoFc, unmodified hinge, full-size IgG1 antibody) (antibody, V domains shown, also called variant v32634; unconjugated HomoFc variant) VH: QVQLVQSGAEVKKPGASVKVSCKASGYIFTAYTMHWVRQAPGQGLEWMGWIKPNNGLANYAQKFQGRVTMTRDTSISTAYMELSRLRSDDTAVYYCARSEITTEFDYWGQGTLVTVSS VL: DIVMTQSPDSLAVSLGERATINCKSSESVDSYANSFLHWYQQKPGQPPKLLIYRASTRESGVPDRFSGSGSGTDFTLTISSLQAEDVAVYYCQQSKEDPLTFGGGTKVEIKR | 2240 AF647 GeoMean fluorescence | 0.02 | 0.59 | 37200 AF647 GeoMean fluorescence | – | – | – | – |
| v32634-Drug-Linker 002 DAR6 (antibody, V domains shown, Drug-Linker 002 stochastically conjugated to lysine residues of the antibody, about DAR 6; Drug-Linker 002 (auristatin analogue Compound 1) stochastically conjugated to lysine residues of the antibody, about DAR 6, Antibody-drug conjugate of v32634) VH: QVQLVQSGAEVKKPGASVKVSCKASGYIFTAYTMHWVRQAPGQGLEWMGWIKPNNGLANYAQKFQGRVTMTRDTSISTAYMELSRLRSDDTAVYYCARSEITTEFDYWGQGTLVTVSS VL: DIVMTQSPDSLAVSLGERATINCKSSESVDSYANSFLHWYQQKPGQPPKLLIYRASTRESGVPDRFSGSGSGTDFTLTISSLQAEDVAVYYCQQSKEDPLTFGGGTKVEIKR | 2200 AF647 GeoMean fluorescence | – | 0.71 | 41100 AF647 GeoMean fluorescence | – | – | – | – |
| v32634-Drug-Linker 002 DAR4 (antibody, V domains shown, Drug-Linker 002 stochastically conjugated to lysine residues of the antibody, about DAR 4; Drug-Linker 002 (auristatin analogue Compound 1) stochastically conjugated to lysine residues of the antibody, about DAR 4, Antibody-drug conjugate of v32634) VH: QVQLVQSGAEVKKPGASVKVSCKASGYIFTAYTMHWVRQAPGQGLEWMGWIKPNNGLANYAQKFQGRVTMTRDTSISTAYMELSRLRSDDTAVYYCARSEITTEFDYWGQGTLVTVSS VL: DIVMTQSPDSLAVSLGERATINCKSSESVDSYANSFLHWYQQKPGQPPKLLIYRASTRESGVPDRFSGSGSGTDFTLTISSLQAEDVAVYYCQQSKEDPLTFGGGTKVEIKR | 2130 AF647 GeoMean fluorescence | – | 0.46 | 33700 AF647 GeoMean fluorescence | – | – | – | – |
| v29001 (telisotuzumab paratope, HetFc, unmodified hinge, two cysteine insertions between T299 and Y300) (antibody, human IgG1, kappa, also called variant v29001; cysteine insertion variant v29001) heavy 1: QVQLVQSGAEVKKPGASVKVSCKASGYIFTAYTMHWVRQAPGQGLEWMGWIKPNNGLANYAQKFQGRVTMTRDTSISTAYMELSRLRSDDTAVYYCARSEITTEFDYWGQGTLVTVSSASTKGPSVFPLAPSSKSTSGGTAALGCLVKDYFPEPVTVSWNSGALTSGVHTFPAVLQSSGLYSLSSVVTVPSSSLGTQTYICNVNHKPSNTKVDKKVEPKSCDKTHTCPPCPAPELLGGPSVFLFPPKPKDTLMISRTPEVTCVVVDVSHEDPEVKFNWYVDGVEVHNAKTKPREEQYNSTCYRVVSVLTVLHQDWLNGKEYKCKVSNKALPAPIEKTISKAKGQPREPQVYVYPPSRDELTKNQVSLTCLVKGFYPSDIAVEWESNGQPENNYKTTPPVLDSDGSFALVSKLTVDKSRWQQGNVFSCSVMHEALHNHYTQKSLSLSPG heavy 2: QVQLVQSGAEVKKPGASVKVSCKASGYIFTAYTMHWVRQAPGQGLEWMGWIKPNNGLANYAQKFQGRVTMTRDTSISTAYMELSRLRSDDTAVYYCARSEITTEFDYWGQGTLVTVSSASTKGPSVFPLAPSSKSTSGGTAALGCLVKDYFPEPVTVSWNSGALTSGVHTFPAVLQSSGLYSLSSVVTVPSSSLGTQTYICNVNHKPSNTKVDKKVEPKSCDKTHTCPPCPAPELLGGPSVFLFPPKPKDTLMISRTPEVTCVVVDVSHEDPEVKFNWYVDGVEVHNAKTKPREEQYNSTCYRVVSVLTVLHQDWLNGKEYKCKVSNKALPAPIEKTISKAKGQPREPQVYVLPPSRDELTKNQVSLLCLVKGFYPSDIAVEWESNGQPENNYLTWPPVLDSDGSFFLYSKLTVDKSRWQQGNVFSCSVMHEALHNHYTQKSLSLSPG light: not shown | – | – | – | – | 2040 AF647 GeoMean fluorescence | 0.428 | 0.024 | 32100 AF647 GeoMean fluorescence |
| v29001-Drug-Linker 004 DAR 6 (antibody, human IgG1, kappa, trivalent Drug-Linker 004 on the cysteine inserted between T299 and Y300 (EU); trivalent Drug-Linker 004 (three Compound 1) on the cysteine inserted between T299 and Y300 (EU), Site-specific cysteine-conjugated antibody-drug conjugate of v29001) heavy 1: QVQLVQSGAEVKKPGASVKVSCKASGYIFTAYTMHWVRQAPGQGLEWMGWIKPNNGLANYAQKFQGRVTMTRDTSISTAYMELSRLRSDDTAVYYCARSEITTEFDYWGQGTLVTVSSASTKGPSVFPLAPSSKSTSGGTAALGCLVKDYFPEPVTVSWNSGALTSGVHTFPAVLQSSGLYSLSSVVTVPSSSLGTQTYICNVNHKPSNTKVDKKVEPKSCDKTHTCPPCPAPELLGGPSVFLFPPKPKDTLMISRTPEVTCVVVDVSHEDPEVKFNWYVDGVEVHNAKTKPREEQYNSTCYRVVSVLTVLHQDWLNGKEYKCKVSNKALPAPIEKTISKAKGQPREPQVYVYPPSRDELTKNQVSLTCLVKGFYPSDIAVEWESNGQPENNYKTTPPVLDSDGSFALVSKLTVDKSRWQQGNVFSCSVMHEALHNHYTQKSLSLSPG heavy 2: QVQLVQSGAEVKKPGASVKVSCKASGYIFTAYTMHWVRQAPGQGLEWMGWIKPNNGLANYAQKFQGRVTMTRDTSISTAYMELSRLRSDDTAVYYCARSEITTEFDYWGQGTLVTVSSASTKGPSVFPLAPSSKSTSGGTAALGCLVKDYFPEPVTVSWNSGALTSGVHTFPAVLQSSGLYSLSSVVTVPSSSLGTQTYICNVNHKPSNTKVDKKVEPKSCDKTHTCPPCPAPELLGGPSVFLFPPKPKDTLMISRTPEVTCVVVDVSHEDPEVKFNWYVDGVEVHNAKTKPREEQYNSTCYRVVSVLTVLHQDWLNGKEYKCKVSNKALPAPIEKTISKAKGQPREPQVYVLPPSRDELTKNQVSLLCLVKGFYPSDIAVEWESNGQPENNYLTWPPVLDSDGSFFLYSKLTVDKSRWQQGNVFSCSVMHEALHNHYTQKSLSLSPG light: not shown | – | – | – | – | 2010 AF647 GeoMean fluorescence | 0.615 | 0.028 | 37700 AF647 GeoMean fluorescence |
| v29001-Drug-Linker 001 DAR 2 (antibody, human IgG1, kappa, Drug-Linker 001 on the cysteine inserted between T299 and Y300 (EU); Drug-Linker 001 (auristatin analogue Compound 1) on the cysteine inserted between T299 and Y300 (EU), Site-specific cysteine-conjugated antibody-drug conjugate of v29001) heavy 1: QVQLVQSGAEVKKPGASVKVSCKASGYIFTAYTMHWVRQAPGQGLEWMGWIKPNNGLANYAQKFQGRVTMTRDTSISTAYMELSRLRSDDTAVYYCARSEITTEFDYWGQGTLVTVSSASTKGPSVFPLAPSSKSTSGGTAALGCLVKDYFPEPVTVSWNSGALTSGVHTFPAVLQSSGLYSLSSVVTVPSSSLGTQTYICNVNHKPSNTKVDKKVEPKSCDKTHTCPPCPAPELLGGPSVFLFPPKPKDTLMISRTPEVTCVVVDVSHEDPEVKFNWYVDGVEVHNAKTKPREEQYNSTCYRVVSVLTVLHQDWLNGKEYKCKVSNKALPAPIEKTISKAKGQPREPQVYVYPPSRDELTKNQVSLTCLVKGFYPSDIAVEWESNGQPENNYKTTPPVLDSDGSFALVSKLTVDKSRWQQGNVFSCSVMHEALHNHYTQKSLSLSPG heavy 2: QVQLVQSGAEVKKPGASVKVSCKASGYIFTAYTMHWVRQAPGQGLEWMGWIKPNNGLANYAQKFQGRVTMTRDTSISTAYMELSRLRSDDTAVYYCARSEITTEFDYWGQGTLVTVSSASTKGPSVFPLAPSSKSTSGGTAALGCLVKDYFPEPVTVSWNSGALTSGVHTFPAVLQSSGLYSLSSVVTVPSSSLGTQTYICNVNHKPSNTKVDKKVEPKSCDKTHTCPPCPAPELLGGPSVFLFPPKPKDTLMISRTPEVTCVVVDVSHEDPEVKFNWYVDGVEVHNAKTKPREEQYNSTCYRVVSVLTVLHQDWLNGKEYKCKVSNKALPAPIEKTISKAKGQPREPQVYVLPPSRDELTKNQVSLLCLVKGFYPSDIAVEWESNGQPENNYLTWPPVLDSDGSFFLYSKLTVDKSRWQQGNVFSCSVMHEALHNHYTQKSLSLSPG light: not shown | – | – | – | – | 2070 AF647 GeoMean fluorescence | 0.584 | 0.064 | 35800 AF647 GeoMean fluorescence |
| v29001-Drug-Linker 003 DAR 4 (antibody, human IgG1, kappa, bivalent Drug-Linker 003 on the cysteine inserted between T299 and Y300 (EU); bivalent Drug-Linker 003 (two Compound 1) on the cysteine inserted between T299 and Y300 (EU), Site-specific cysteine-conjugated antibody-drug conjugate of v29001) heavy 1: QVQLVQSGAEVKKPGASVKVSCKASGYIFTAYTMHWVRQAPGQGLEWMGWIKPNNGLANYAQKFQGRVTMTRDTSISTAYMELSRLRSDDTAVYYCARSEITTEFDYWGQGTLVTVSSASTKGPSVFPLAPSSKSTSGGTAALGCLVKDYFPEPVTVSWNSGALTSGVHTFPAVLQSSGLYSLSSVVTVPSSSLGTQTYICNVNHKPSNTKVDKKVEPKSCDKTHTCPPCPAPELLGGPSVFLFPPKPKDTLMISRTPEVTCVVVDVSHEDPEVKFNWYVDGVEVHNAKTKPREEQYNSTCYRVVSVLTVLHQDWLNGKEYKCKVSNKALPAPIEKTISKAKGQPREPQVYVYPPSRDELTKNQVSLTCLVKGFYPSDIAVEWESNGQPENNYKTTPPVLDSDGSFALVSKLTVDKSRWQQGNVFSCSVMHEALHNHYTQKSLSLSPG heavy 2: QVQLVQSGAEVKKPGASVKVSCKASGYIFTAYTMHWVRQAPGQGLEWMGWIKPNNGLANYAQKFQGRVTMTRDTSISTAYMELSRLRSDDTAVYYCARSEITTEFDYWGQGTLVTVSSASTKGPSVFPLAPSSKSTSGGTAALGCLVKDYFPEPVTVSWNSGALTSGVHTFPAVLQSSGLYSLSSVVTVPSSSLGTQTYICNVNHKPSNTKVDKKVEPKSCDKTHTCPPCPAPELLGGPSVFLFPPKPKDTLMISRTPEVTCVVVDVSHEDPEVKFNWYVDGVEVHNAKTKPREEQYNSTCYRVVSVLTVLHQDWLNGKEYKCKVSNKALPAPIEKTISKAKGQPREPQVYVLPPSRDELTKNQVSLLCLVKGFYPSDIAVEWESNGQPENNYLTWPPVLDSDGSFFLYSKLTVDKSRWQQGNVFSCSVMHEALHNHYTQKSLSLSPG light: not shown | – | – | – | – | 2048 AF647 GeoMean fluorescence | 1.13 | 0.03 | 38600 AF647 GeoMean fluorescence |
